We go through one molecule from publication PMC2733758 (The Journal of Cell Biology, 2009).

In this test the target is T1, GST∷CED-9(R211E, N212G) (C. elegans, UniProt P41958 1-280, R211E | N212G).
T1 sequence (looked up): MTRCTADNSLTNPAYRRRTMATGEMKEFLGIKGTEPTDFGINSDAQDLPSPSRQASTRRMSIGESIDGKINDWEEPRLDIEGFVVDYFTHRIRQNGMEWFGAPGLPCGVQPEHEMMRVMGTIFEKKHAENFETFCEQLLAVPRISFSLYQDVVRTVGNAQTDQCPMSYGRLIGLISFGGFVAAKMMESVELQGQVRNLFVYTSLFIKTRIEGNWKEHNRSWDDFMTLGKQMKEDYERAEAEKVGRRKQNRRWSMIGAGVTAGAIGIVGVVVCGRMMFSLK
In words: pull-down.

B1: in vitro-translated, [35S]methionine-labeled FZO-1 protein (natural protein, C. elegans, UniProt Q23424 1-774, looked up)
chain: MSGTASLVHTLPASGDSNHRGLHSLKNSRRAADNEPLLRFREAKKVLGDVYGELKDNVAELEGVYKDIKENDFVSSEQREEIEAIGDSIKTIMDTFQRDNMKVVFFGRTSNGKSTTINAMLHEKVLPQGMGHTTCCFLQVEGSEGEVGHLQLDDNPQKIDMKMLGKIGHALSDENSDLPAMGQDSLLKVFHPKKSESGECRLLQNDVVILDSPGVDLSPEFDSWIDKHCLDADVFVLVSNAESTLTQAEKNFFLRVAKKLSKPNVFILNNRWDASAAETENIEDVKKQHLTRFRQFLVDELEVCSEREVNDRIFFVSSREVLESRLKARGLVQKAYQAEGHGTRALEFQNFERHFEHCISRSAIHTKFEAHNRRAHEMIGKMRLNLNSVLTSAAEQRSKLQNNLNESTRTFNECRVNFTQFEKAYREQTEQLRAEVHLKVSADFFEEIARLDAIIDRFEQPFDGSSSGMTKYKEDLAIFVDKCLSSDLEARCTGGLMSRIWNLENDMFQYVTKILAEPYQNKLEEVWRYRAPFKFSICVDVPALVNDFHEDLEFRFTFGLHAIIRRIIAYRSGQPVTAINTNLLTPLSLKQQSEKNSVRDAEASAASEEQAMMTQMVLTSAAFLANGSLGVLVVGGIVYKAVGWRVIAVGGAAYAGLYAWERMRWNSGAKEQHLKEQFRSHLAARMQQVSTAHTHHCETQAIREMDQVFDGLKATVGGVHREMKNDLDVQKTQIDAVDSTIRTLGTIKGKAVFLLRNLEQFASSYLRSDSPPTP
modifications: [35S]methionine-labeled
As for B1, the “fold lower affinity than wild-type CED-9” value was 3 fold.
